Consider 27 substances from paper PMC5749897.

Like-named read-outs stand apart in the source and are kept apart here.

The target of assay [1] is AP33. In words: flow cytometry. To be noted: read off a plot. Background: In flow cytometry, cells or beads pass a laser one at a time.
Assay [2] deals with HCV1. Put plainly: flow cytometry. The settings on record: read off a plot.
In assay [3] the target is AP33. Put plainly: flow cytometry or ELISA. The settings on record: read off a plot.
Assay [4] has as its target A4. In words: flow cytometry or ELISA. The settings on record: read off a plot.
The target of assay [5] is HCV1. In words: flow cytometry or ELISA. The settings on record: read off a plot.
Another assay deals with AR1A. Put plainly: flow cytometry.
The target in a further assay is AR1B. Put plainly: flow cytometry.
Assay [6] has as its target A4. Put plainly: flow cytometry. The settings on record: read off a plot.
Another assay concerns the target AR3A. Put plainly: flow cytometry. To be noted: read off a plot.
The next assay deals with AR2A. In words: flow cytometry. The settings on record: read off a plot.
For assay [7], the target named is soluble WT E2c (E2 core domain). Put plainly: ELISA. The settings on record: first point of the titration, dilution 1/1; parent: est. 0.42; read off a plot.
Assay [8] deals with E1E2 I622A, ELISA antigen (transfected cell lysate) (hepatitis C virus genotype 1a, strain H77). In words: ELISA. Background: ELISA stands for enzyme-linked immunosorbent assay.
The target of assay [9] is E1E2 F627A, ELISA antigen (transfected cell lysate) (hepatitis C virus genotype 1a, strain H77). Put plainly: ELISA.
Assay [10] has as its target E1E2 Y276A (H77 alanine-scanning library clone) (hepatitis C virus genotype 1a, strain H77). Put plainly: flow cytometry on cells.
Assay [11] has as its target E1E2 G278A (H77 alanine-scanning library clone) (hepatitis C virus genotype 1a, strain H77). In words: flow cytometry on cells.
Assay [12] has as its target E1E2 D279A (H77 alanine-scanning library clone) (hepatitis C virus genotype 1a, strain H77). Put plainly: flow cytometry on cells.
The target in assay [13] is E1E2 Y613A (plasmid H77c, no V5 tag) (hepatitis C virus genotype 1a, strain H77). Put plainly: flow cytometry on cells.
The target in assay [14] is E1E2 I622A (H77 alanine-scanning library clone) (hepatitis C virus genotype 1a, strain H77). In words: flow cytometry on cells.
Assay [15] concerns the target E1E2 W616A (H77 alanine-scanning library clone) (hepatitis C virus genotype 1a, strain H77). In words: flow cytometry on cells.
For assay [16], the target named is recombinant CD81-LEL Fc-fusion protein. Put plainly: ELISA. The settings on record: first point of the titration, dilution 1/1; parent: est. 0.42; read off a plot.
The target of assay [17] is CD81-Fc (K124T), a mutant that reduces CD81 dimerization (UniProt P60033). Put plainly: ELISA. The settings on record: first point of the titration, dilution 1/1; parent: est. 0.65; read off a plot.
Assay [18] deals with HCV1. Put plainly: ELISA. To be noted: first point of the titration, dilution 1/100; parent: est. 1.3; read off a plot.

Chain of CD81-Fc (K124T), a mutant that reduces CD81 dimerization (P60033 whole entry K124T, looked up, tested part not stated): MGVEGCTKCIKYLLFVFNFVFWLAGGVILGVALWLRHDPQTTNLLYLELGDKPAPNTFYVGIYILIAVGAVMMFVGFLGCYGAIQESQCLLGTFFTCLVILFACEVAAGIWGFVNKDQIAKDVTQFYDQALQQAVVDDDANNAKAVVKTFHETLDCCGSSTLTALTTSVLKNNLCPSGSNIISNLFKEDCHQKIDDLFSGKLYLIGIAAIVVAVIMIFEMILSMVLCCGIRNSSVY

Take “wild-type HCV E1E2 (genotype 1a, strain H77) expression construct with C-terminal V5 epitope tag W437A”: the percent of parent in the assay with AP33 [1] was 77 % of WT; in the assay with HCV1 [2], 95 % of WT.

For the substance “wild-type HCV E1E2, plasmid H77c (no V5 tag) Y624A”, the percent of parent in the assay with AP33 [3] was 38 % of WT; with A4 [4], 43 % of WT.

With “wild-type HCV E1E2, plasmid H77c (no V5 tag) Q336A”, the percent of parent is 80 % of WT with AP33 [3], 88 % of WT in the assay with A4 [4] and 88 % of WT with HCV1 [5].

With “wild-type HCV E1E2 (genotype 1a, strain H77) expression construct with C-terminal V5 epitope tag Y632A”, the percent of parent with AR1A was < 0 % of WT.

As to “wild-type HCV E1E2 (genotype 1a, strain H77) expression construct with C-terminal V5 epitope tag Y485A”, the percent of parent in the assay with AP33 [1] was 104 % of WT; with AR1A (read off a plot) it was 43 % of WT.

With “wild-type HCV E1E2 (genotype 1a, strain H77) expression construct with C-terminal V5 epitope tag G495A”, the percent of parent is 92 % of WT in the assay with HCV1 [2] and 26 % of WT with AR1A (read off a plot).

With “wild-type HCV E1E2 (genotype 1a, strain H77) expression construct with C-terminal V5 epitope tag G547A”, the percent of parent with AR1B (read off a plot) is 22 % of WT; with A4 [6] it was 74 % of WT; with HCV1 [2], 44 % of WT; with AR1A (read off a plot), 18 % of WT.

Take “wild-type HCV E1E2 (genotype 1a, strain H77) expression construct with C-terminal V5 epitope tag G440A”: the percent of parent was 81 % of WT with AP33 [1]; 20 % of WT in the assay with AR3A; 82 % of WT with AR2A; 84 % of WT with HCV1 [2]; 84 % of WT with AR1A (read off a plot).

As to “wild-type HCV E1E2, plasmid H77c (no V5 tag) K562A”, the percent of parent with AP33 [3] is 75 % of WT; with A4 [4], 77 % of WT; with HCV1 [5] it was 95 % of WT.

With “wild-type HCV E1E2 (genotype 1a, strain H77) expression construct with C-terminal V5 epitope tag L438A”, the percent of parent in the assay with AP33 [1] was 76 % of WT; in the assay with HCV1 [2] it was 75 % of WT.

Turning to “wild-type HCV E1E2 (genotype 1a, strain H77) expression construct with C-terminal V5 epitope tag P545A”, the percent of parent was 6 % of WT with AR1B (read off a plot), 92 % of WT with HCV1 [2] and 18 % of WT in the assay with AR1A (read off a plot).

As for “wild-type HCV E1E2, plasmid H77c (no V5 tag) C272A”, the results for the percent of parent in the assay with AP33 [3], in the assay with A4 [4] and with HCV1 [5] were 85 % of WT, 93 % of WT and 98 % of WT, respectively.

In the case of “wild-type HCV E1E2, plasmid H77c (no V5 tag) W712A”, the percent of parent was 81 % of WT with AP33 [3], 80 % of WT in the assay with A4 [4] and 82 % of WT in the assay with HCV1 [5].

Consider “wild-type HCV E1E2 (genotype 1a, strain H77) expression construct with C-terminal V5 epitope tag P544A”, for which the percent of parent was 5 % of WT with AR1B (read off a plot), 45 % of WT with HCV1 [2] and 9 % of WT in the assay with AR1A (read off a plot).

Regarding “wild-type HCV E1E2 (genotype 1a, strain H77) expression construct with C-terminal V5 epitope tag C503A”, in the assay with AR1A (read off a plot), the percent of parent is 200 % of WT.

On to “wild-type HCV E1E2, plasmid H77c (no V5 tag) C452A”, for which the percent of parent with AP33 [3] was 60 % of WT; with A4 [4] it was 93 % of WT; with HCV1 [5] it was 77 % of WT.

With “wild-type HCV E1E2 (genotype 1a, strain H77) expression construct with C-terminal V5 epitope tag T518A”, the percent of parent with AP33 [1] is 106 % of WT; with AR2A, 140 % of WT; in the assay with HCV1 [2], 100 % of WT; in the assay with AR1A (read off a plot) it was 100 % of WT.

“recombinant CD81-LEL Fc-fusion protein K124T”: the response in assay [7] came to 0.65 OD450.

As to “recombinant CD81-LEL Fc-fusion protein (Fc fusion)”, the figures for the enhancement of binding over wild type in assay [8], in assay [9] and in [14] were 56%, 13% and 49%, respectively. Also, the % CD81 binding (of wild type) in assay [10] was 50%; in assay [11], 50%; in [12] it was 48%. The % binding activity in assay [13] and in [15] was under 3% each time. Besides, the % of wild-type reactivity (% of wild-type reactivity) in assay [13] and in [15] was under 25 each time.

For the substance “wild-type HCV E1E2, plasmid H77c (no V5 tag) D346A”, the percent of parent with AP33 [3] is 100 % of WT; in the assay with A4 [4], 95 % of WT; in the assay with HCV1 [5] it was 98 % of WT.

Regarding “wild-type HCV E1E2, plasmid H77c (no V5 tag) T396A”, the results for the percent of parent in the assay with AP33 [3], in the assay with A4 [4] and in the assay with HCV1 [5] were 68 % of WT, 85 % of WT and 98 % of WT, respectively.

As for soluble WT E2c (E2 core domain) I622A, the response in assay [16] was 1.4 OD450; in assay [17], 1.5 OD450; with HCV1 [18], 1.3 OD450.

For soluble WT E2c (E2 core domain) F627A, the response in assay [16] amounted to 0.38 OD450; in assay [17], 0.62 OD450; with HCV1 [18], 1.3 OD450.

As for “wild-type HCV E1E2, plasmid H77c (no V5 tag) R237A”, the results for the percent of parent in the assay with AP33 [3], in the assay with A4 [4] and with HCV1 [5] were 110 % of WT, 82 % of WT and 105 % of WT, respectively.

Turning to “wild-type HCV E1E2 (genotype 1a, strain H77) expression construct with C-terminal V5 epitope tag W549A”, the percent of parent in the assay with AR1B and with AR1A was < 0 % of WT throughout.

Turning to “wild-type HCV E1E2 (genotype 1a, strain H77) expression construct with C-terminal V5 epitope tag N548A”, the values for the percent of parent with AR1B and with AR1A (read off a plot) were < 0 % of WT and 23 % of WT, respectively.

Turning to “soluble WT E2c (E2 core domain) I622A; F627A”, the values for the response (in [16]; in assay [17]; with HCV1 [18]) were 0.94 OD450, 1.2 OD450 and 1.3 OD450, respectively.
